Assays:
[1] = target: T1, membrane-bound full-length cynomolgus monkey HVEM on transiently transfected HEK293F cells (cynomolgus monkey (Macaca fascicularis)); experiment: FACS, undiluted hybridoma supernatant
T1 construct: also called cynomolgus HVEM
T1 chain: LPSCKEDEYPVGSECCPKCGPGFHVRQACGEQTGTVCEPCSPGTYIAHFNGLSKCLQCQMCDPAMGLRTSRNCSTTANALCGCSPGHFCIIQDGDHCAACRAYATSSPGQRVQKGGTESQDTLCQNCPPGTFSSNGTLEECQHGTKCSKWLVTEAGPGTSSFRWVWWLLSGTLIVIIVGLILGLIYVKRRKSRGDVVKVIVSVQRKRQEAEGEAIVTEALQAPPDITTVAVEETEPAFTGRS
Protocol: Generation of human ‘full-length’ HVEM-transfected HEK293F cells (clone no. 128) is described in Example 1a. […] After 72 hours, surface cynomolgus monkey HVEM expression on transfected cells was analysed by FACS analysis. To this end, stable human full-length HVEM-transfected HEK293F cells and transient cynomolgus monkey full-length HVEM-transfected HEK293F cells were put at 10×10⁶ cells/mL in ice-chilled phosphate-buffered saline containing 0.1% BSA (Sigma)/0.05% NaN₃ (PBS/BSA/NaN₃) supplemented with 50 μg/mL human IgGs (blocking of possible Fcγ receptors; Sigma) for 10 minutes at 4° C. Then, 10 μL/tube (i.e., 0.1×10⁶ cells) of these cells were incubated with 100 μL undiluted hybridoma supernatant/tube for 30 minutes at 4° C. Phycoerythrin (PE)-conjugated mouse anti-human HVEM antibody (clone eBioHVEM-122; eBioscience) at 1:20 was run as a positive control antibody. After extensive washing in PBS/BSA/NaN₃, cells were subsequently incubated with 1:200 diluted PE-conjugated goat anti-mouse IgG Fcγ-specific antibodies (Jackson ImmunoResearch) for 30 minutes at 4° C. After extensive washing in PBS/BSA/NaN₃, cells were fixed in 2% formaldehyde in PBS/BSA/NaN₃ for 30 minutes at 4° C. Binding of antibodies was measured using a flow cytometer (model FACSCalibur; BD Biosciences).

[2] = target: T2, membrane-bound full-length human HVEM on stable HVEM-transfected HEK293F cells (clone no. 128) (human, UniProt Q92956 39-283); experiment: FACS titration on HVEM-HEK293F, half-maximum binding
T2 construct: The same cDNA was also expressed on Sf9 insect cells; also called TNFRSF14; CD270
T2 sequence: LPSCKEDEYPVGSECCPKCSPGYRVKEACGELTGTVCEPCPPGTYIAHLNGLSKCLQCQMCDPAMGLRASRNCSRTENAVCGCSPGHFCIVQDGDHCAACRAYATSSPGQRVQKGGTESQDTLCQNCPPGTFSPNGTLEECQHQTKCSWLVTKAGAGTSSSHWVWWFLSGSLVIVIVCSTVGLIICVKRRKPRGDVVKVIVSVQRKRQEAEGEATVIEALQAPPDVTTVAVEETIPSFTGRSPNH
Protocol: In order to determine the relative binding affinity of purified BTLA/HVEM blocking chimeric mouse/human anti-human HVEM antibodies no. 36H12, 45H6, 48H6, 11H7, and 49G4 for human HVEM, FACS analysis was used.
To this end, stable human full-length HVEM-transfected HEK293F cells (clone no. 128; see Example 1(a) above) were put at 10×10⁶ cells/mL in ice-chilled PBS containing 0.1% BSA (Sigma)/0.05% NaN₃ (PBS/BSA/NaN₃) supplemented with 50 μg/mL human IgGs (blocking possible Fcγ receptors; Sigma) for 10 minutes at 4° C. Then, 10 μL/tube (i.e., 0.1×10⁶ cells) of these cells were incubated with or without 100 μL titrated (in PBS/BSA/NaN₃) purified BTLA/HVEM blocking chimeric mouse/human anti-human HVEM antibody/tube for 30 minutes at 4° C. After extensive washing in PBS/BSA/NaN₃, cells were subsequently incubated with 1:200 diluted PE-conjugated goat anti-human IgG Fcγ-specific antibodies (Jackson ImmunoResearch) for 30 minutes at 4° C. After extensive washing in PBS/BSA/NaN₃, cells were fixed in 4% formaldehyde in PBS/BSA/NaN₃ for 30 minutes at 4° C. Binding (geo-mean fluorescence intensity) of chimeric mouse/human anti-human HVEM antibodies no. 36H12, 45H6, 48H6, 11H7, and 49G4 on membrane human HVEM was measured using a flow cytometer (FACSCalibur; BD Biosciences). For comparison, purified BTLA/HVEM blocking mouse anti-human HVEM antibody counterparts no. 36H12, 45H6, 48H6, 11H7, and 49G4 were run in parallel, and their binding was monitored as described in Example 2 (a).

B1: mouse anti-human HVEM antibody no. 36H12 (antibody, mouse IgG1, V domains shown)
VH: EVQLQQSGAGLVKPGASVKLSCTASGFNIKDTYMHWVRQRPEQGLEWIGRIDPATANTKYDPKFQGKATLTTDTSSNTAYLQLSSLTSEDTAVYYCVTYGYDVSWFAYWGLGALVTVSA
VL: DVLMTQTPLSLPVSLGDQASISCRSSQSIVHSNGITYLEWYLQKPGQSPKLLIYKVSNRFSGVPDRFSGSGSGTDFTLKISRVEAEDLGVYYCFQGSHVPLTFGAGTKLELK
notes: mouse IgG1/kappa; also called 36H12 (mouse)
binding result [1]: no binding | EC50 [2]: 0.43 µg/mL

Source: US20230052646A1 (JJP BIOLOGICS SP Z O O, published 2023)
